Literature values, collected in article PMC6451094.

Target: TBP (Saccharomyces cerevisiae) (UniProt P13393)
Sequence of UniProt P13393 (P13393 2-240): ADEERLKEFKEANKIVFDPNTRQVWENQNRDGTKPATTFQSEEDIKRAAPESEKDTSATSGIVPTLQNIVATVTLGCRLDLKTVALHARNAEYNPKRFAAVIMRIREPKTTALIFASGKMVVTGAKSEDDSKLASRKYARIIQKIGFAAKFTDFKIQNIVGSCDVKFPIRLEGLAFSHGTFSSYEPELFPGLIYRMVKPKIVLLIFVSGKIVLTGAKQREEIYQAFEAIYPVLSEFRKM

Substance: Mot1 (from UniProt P32333)
- Kd: 1.5 nM
